The values below come from patent US20150329594A1 (University of California, published 2015).

First the molecules themselves.
B1: Peptide VIII, Ac-SS-RCVme…-NH2 (peptide)
peptide: Ac-SSRCV[Trp(1-Me)]QDWGAHRCT-NH2
modifications: disulfide 4-14
SMILES: CC(=O)N[C@@H](CO)C(=O)N[C@@H](CO)C(=O)N[C@@H](CCCNC(=N)N)C(=O)N[C@H]1CSSC[C@@H](C(=O)N[C@H](C(N)=O)[C@@H](C)O)NC(=O)[C@H](CCCNC(=N)N)NC(=O)[C@H](Cc2c[nH]cn2)NC(=O)[C@H](C)NC(=O)CNC(=O)[C@H](Cc2c[nH]c3ccccc23)NC(=O)[C@H](CC(=O)O)NC(=O)[C@H](CCC(N)=O)NC(=O)[C@H](Cc2cn(C)c3ccccc23)NC(=O)[C@H](C(C)C)NC1=O
B2: Peptide 3.3, Ac-NR-LCVWQDWGAHRCT-NH2 (peptide)
peptide: Ac-NRLCVWQDWGAHRCT-NH2
modifications: disulfide 4-14
SMILES: CC(=O)N[C@@H](CC(N)=O)C(=O)N[C@@H](CCCNC(=N)N)C(=O)N[C@@H](CC(C)C)C(=O)N[C@H]1CSSC[C@@H](C(=O)N[C@H](C(N)=O)[C@@H](C)O)NC(=O)[C@H](CCCNC(=N)N)NC(=O)[C@H](Cc2c[nH]cn2)NC(=O)[C@H](C)NC(=O)CNC(=O)[C@H](Cc2c[nH]c3ccccc23)NC(=O)[C@H](CC(=O)O)NC(=O)[C@H](CCC(N)=O)NC(=O)[C@H](Cc2c[nH]c3ccccc23)NC(=O)[C@H](C(C)C)NC1=O
B3: Peptide 3.1, Ac-ER-ICVWQDWGAHRCT-NH2 (peptide)
peptide: Ac-ERICVWQDWGAHRCT-NH2
modifications: disulfide 4-14
SMILES: CC[C@H](C)[C@H](NC(=O)[C@H](CCCNC(=N)N)NC(=O)[C@H](CCC(=O)O)NC(C)=O)C(=O)N[C@H]1CSSC[C@@H](C(=O)N[C@H](C(N)=O)[C@@H](C)O)NC(=O)[C@H](CCCNC(=N)N)NC(=O)[C@H](Cc2c[nH]cn2)NC(=O)[C@H](C)NC(=O)CNC(=O)[C@H](Cc2c[nH]c3ccccc23)NC(=O)[C@H](CC(=O)O)NC(=O)[C@H](CCC(N)=O)NC(=O)[C@H](Cc2c[nH]c3ccccc23)NC(=O)[C@H](C(C)C)NC1=O
B4: Peptide 3.2, Ac-NN-LCVWQDWGAHRCT-NH2 (peptide)
peptide: Ac-NNLCVWQDWGAHRCT-NH2
modifications: disulfide 4-14
SMILES: CC(=O)N[C@@H](CC(N)=O)C(=O)N[C@@H](CC(N)=O)C(=O)N[C@@H](CC(C)C)C(=O)N[C@H]1CSSC[C@@H](C(=O)N[C@H](C(N)=O)[C@@H](C)O)NC(=O)[C@H](CCCNC(=N)N)NC(=O)[C@H](Cc2c[nH]cn2)NC(=O)[C@H](C)NC(=O)CNC(=O)[C@H](Cc2c[nH]c3ccccc23)NC(=O)[C@H](CC(=O)O)NC(=O)[C@H](CCC(N)=O)NC(=O)[C@H](Cc2c[nH]c3ccccc23)NC(=O)[C@H](C(C)C)NC1=O

Bridge positions count the residues as written; N and C are the ends. Square brackets hold non-standard residues; d marks the D form. Trp(1-Me) = Cn1cc(C[C@H](N)C(=O)O)c2ccccc21; Sea = not defined here

T1 sequence (P01024 23-1663 limits assumed): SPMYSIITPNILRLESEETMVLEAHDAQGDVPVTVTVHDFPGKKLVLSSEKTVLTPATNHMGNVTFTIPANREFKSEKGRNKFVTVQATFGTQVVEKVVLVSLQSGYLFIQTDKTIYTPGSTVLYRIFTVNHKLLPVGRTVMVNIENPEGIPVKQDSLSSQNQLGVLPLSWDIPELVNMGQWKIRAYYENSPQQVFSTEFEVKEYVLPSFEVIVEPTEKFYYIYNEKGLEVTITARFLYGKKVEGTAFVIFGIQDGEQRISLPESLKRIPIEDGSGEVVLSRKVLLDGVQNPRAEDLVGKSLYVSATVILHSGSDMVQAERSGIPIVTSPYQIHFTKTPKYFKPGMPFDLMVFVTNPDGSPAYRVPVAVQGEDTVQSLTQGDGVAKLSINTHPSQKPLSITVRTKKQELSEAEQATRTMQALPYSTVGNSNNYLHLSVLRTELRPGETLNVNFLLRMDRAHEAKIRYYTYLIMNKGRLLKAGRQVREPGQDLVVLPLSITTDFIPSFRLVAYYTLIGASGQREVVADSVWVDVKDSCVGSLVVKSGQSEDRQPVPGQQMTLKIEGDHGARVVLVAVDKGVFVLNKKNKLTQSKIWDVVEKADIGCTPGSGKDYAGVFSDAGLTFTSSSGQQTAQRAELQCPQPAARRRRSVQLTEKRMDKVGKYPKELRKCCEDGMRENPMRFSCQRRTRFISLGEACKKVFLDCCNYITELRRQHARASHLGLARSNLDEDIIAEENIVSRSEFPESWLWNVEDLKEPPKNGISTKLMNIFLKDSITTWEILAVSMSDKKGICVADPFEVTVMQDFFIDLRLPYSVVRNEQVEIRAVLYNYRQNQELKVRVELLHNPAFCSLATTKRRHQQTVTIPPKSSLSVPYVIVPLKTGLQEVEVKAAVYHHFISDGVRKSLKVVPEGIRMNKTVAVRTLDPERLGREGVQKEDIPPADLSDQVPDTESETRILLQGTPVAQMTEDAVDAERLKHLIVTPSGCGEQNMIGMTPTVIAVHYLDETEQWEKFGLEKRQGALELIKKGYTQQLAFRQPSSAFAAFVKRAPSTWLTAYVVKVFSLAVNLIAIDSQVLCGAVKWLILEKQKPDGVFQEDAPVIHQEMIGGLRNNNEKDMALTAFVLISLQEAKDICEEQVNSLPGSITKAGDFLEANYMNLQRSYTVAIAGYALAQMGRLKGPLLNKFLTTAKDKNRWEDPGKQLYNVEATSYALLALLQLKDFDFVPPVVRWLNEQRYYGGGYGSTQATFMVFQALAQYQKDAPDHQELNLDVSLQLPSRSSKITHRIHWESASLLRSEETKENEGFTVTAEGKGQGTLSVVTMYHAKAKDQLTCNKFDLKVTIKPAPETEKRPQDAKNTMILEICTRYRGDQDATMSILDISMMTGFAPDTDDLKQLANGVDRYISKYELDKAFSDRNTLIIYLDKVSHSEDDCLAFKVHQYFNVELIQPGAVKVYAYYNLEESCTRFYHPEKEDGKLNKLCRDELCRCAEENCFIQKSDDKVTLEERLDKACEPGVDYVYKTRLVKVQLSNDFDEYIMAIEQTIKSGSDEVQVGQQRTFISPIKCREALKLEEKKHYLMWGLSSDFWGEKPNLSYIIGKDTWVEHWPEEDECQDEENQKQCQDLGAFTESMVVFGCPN

The first test has as its target T1, human complement protein C3 (human, UniProt P01024 23-1663). Kind of test: cell-based or functional assay.
For the molecule B1, the “IC50 (assay not named in Table 7; preliminary C3b ELISA by paragraph 235)” value worked out at 420000 nM.

In the case of Ac-[Trp(1-Me)]CVWQDWGAHRCT-NH2 (disulfide 2-12) [Peptide II, Ac-me…-NH2], the “IC50 (assay not named in Table 7; preliminary C3b ELISA by paragraph 235)” value amounted to 240000 nM.

The target in a further test is T1, human complement protein C3. The test can be described thus: cell-based or functional assay. The source holds these as a separate data set.
On to B2, for which the “C3b ELISA IC50” value was 600 nM, the “C5b-9 ELISA IC50” value is 500 nM and the “Lysis IC50” value was 300 nM.

As to Ac-ICVWQDWG[Sea]HRCT-NH2 (disulfide 2-12; reading uncertain; also: printed as Ac-ICVWQDWG{Sea}HRCT-NH2) [Peptide 2.5, Ac-ICVWQDWG{Sea}HRCT-NH2], the “C3b ELISA IC50” value was 600 nM, the “C5b-9 ELISA IC50” value was 700 nM and the “Lysis IC50” value was 500 nM.

Turning to B3, the “C3b ELISA IC50” value worked out at 900 nM, the “C5b-9 ELISA IC50” value turned out to be 500 nM and the “Lysis IC50” value stood at 900 nM.

For Ac-RSICVWQDWGAHRCT-NH2 (disulfide 4-14) [Peptide 3.4, Ac-RS-ICVWQDWGAHRCT-NH2], the “C3b ELISA IC50” value stood at 700 nM, the “C5b-9 ELISA IC50” value was found to be 600 nM and the “Lysis IC50” value stood at 300 nM.

With B4, the “C3b ELISA IC50” value was 600 nM, the “C5b-9 ELISA IC50” value turned out to be 500 nM and the “Lysis IC50” value was determined as 300 nM.
